Results: publication PMC9150345

Columns and labels:
[1] = biological target: hTBPQ80, hTBP with an extension of 80 glutamine residues (amino acids 50-142), fused to the N-terminal fragment of Venus (human) (UniProt P20226); experiment: split reporter (BiFC, NanoBiT); BiFC in HEK293 cells co-transfected with VC- and VN- constructs and pCAG-mCherry; read 48 h after transfection; interaction percent = green cells per 100 red cells
[2] = biological target: Antp-hTBP heterodimer (VCAntp-VNTBP, Venus reconstituted by BiFC) (Drosophila | human) (UniProt P02833)
Chain of Antp-hTBP heterodimer (VCAntp-VNTBP, Venus reconstituted by BiFC) (Drosophila | human) (P02833 whole entry, chain 1 of 2): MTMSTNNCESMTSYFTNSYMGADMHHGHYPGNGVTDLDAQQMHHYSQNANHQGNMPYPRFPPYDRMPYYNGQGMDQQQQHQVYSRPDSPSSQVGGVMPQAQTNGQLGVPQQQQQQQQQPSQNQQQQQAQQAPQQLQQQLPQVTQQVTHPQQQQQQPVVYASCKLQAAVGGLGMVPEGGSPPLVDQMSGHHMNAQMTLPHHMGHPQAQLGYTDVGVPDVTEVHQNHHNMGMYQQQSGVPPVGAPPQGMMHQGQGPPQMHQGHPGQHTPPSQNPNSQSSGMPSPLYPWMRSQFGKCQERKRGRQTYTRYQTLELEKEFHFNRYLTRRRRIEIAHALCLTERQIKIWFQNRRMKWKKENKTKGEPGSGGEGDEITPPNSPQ
Chain of Antp-hTBP heterodimer (VCAntp-VNTBP, Venus reconstituted by BiFC) (Drosophila | human) (P20226 whole entry, chain 2 of 2, further chain): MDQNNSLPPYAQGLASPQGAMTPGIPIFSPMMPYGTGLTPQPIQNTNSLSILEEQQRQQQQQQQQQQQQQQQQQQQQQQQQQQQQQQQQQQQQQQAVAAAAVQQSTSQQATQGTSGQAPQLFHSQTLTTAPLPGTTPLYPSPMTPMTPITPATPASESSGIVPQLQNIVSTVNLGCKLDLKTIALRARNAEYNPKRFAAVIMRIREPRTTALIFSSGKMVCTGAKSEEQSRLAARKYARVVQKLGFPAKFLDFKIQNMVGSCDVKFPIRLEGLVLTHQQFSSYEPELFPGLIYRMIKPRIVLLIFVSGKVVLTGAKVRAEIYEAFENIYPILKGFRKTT

Chain of hTBPQ80, hTBP with an extension of 80 glutamine residues (amino acids 50-142), fused to the N-terminal fragment of Venus (human) (P20226 whole entry, the tested form may be a part): as the sequence (P20226 whole entry, chain 2 of 2, further chain) above
Chain of Antennapedia (Antp), fused to the C-terminal fragment of Venus (P02833 whole entry, the tested form may be a part): as the sequence (P02833 whole entry, chain 1 of 2) above
Chain of AntpΔN, Antp lacking the N-terminal region (amino acids 1-269), fused to the C-terminal fragment of Venus (P02833 270-378, stated change not applied): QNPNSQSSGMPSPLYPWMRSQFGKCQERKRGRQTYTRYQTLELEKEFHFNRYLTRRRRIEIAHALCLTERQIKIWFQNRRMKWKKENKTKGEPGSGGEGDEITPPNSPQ

Substance	percent of transfected cells showing BiFC [1]	Antp transactivation on pGLH11 with co-expressed TBP and BIP2, percent of Antp alone (Fig. 5D) [2]
Antennapedia (Antp), fused to the C-terminal fragment of Venus (from UniProt P02833 1-378) (natural protein)	78%	
AntpΔN, Antp lacking the N-terminal region (amino acids 1-269), fused to the C-terminal fragment of Venus (from UniProt P02833 270-378) (domain or fragment)	47%	
Bric-a-brac interacting protein BIP2 (2–89) fused to ECFP (from UniProt Q9XZU7 2-89) (domain or fragment)		74%
